Measured values: the supplement of paper PMC9112550, “Optimization of the antimicrobial peptide Bac7 by deep mutational scanning” (BMC Biology, 2022)

What follows are sequences tested on Escherichia coli TOP10 (assay: shrunken log2 fold change of peptide-encoding DNA abundance (4.5 h post-induction vs induction); higher = less antimicrobial activity (less host growth inhibition)). Conditions: time post-induction: 4.5 h; library: site-saturation at positions 5, 18, 19, 20.
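Also: peptides expressed intracellularly from a pBAD plasmid library in pooled LB shake-flask culture, induced with 0.3% L-arabinose, DNA abundance read by NGS, three biological replicates, DESeq2 with apeglm shrinkage.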

Question: For RRIRIRPPRLPRPRPRPNHGPRP, which “shrunken log2 fold change” value is on record?
Answer: Its value is -0.413.

Question: How did the “shrunken log2 fold change” value turn out when RRIRIRPPRLPRPRPRPNKQPRP was run?
Answer: Its value is -0.525.

Question: Which “shrunken log2 fold change” value does the source give for RRIRIRPPRLPRPRPRPNMNPRP here?
Answer: The value was -0.773.

Question: For RRIRIRPPRLPRPRPRPNMWPRP, which “shrunken log2 fold change” value is on record?
Answer: The value was -0.59.

Question: For RRIRIRPPRLPRPRPRPNNDPRP, which “shrunken log2 fold change” value is on record?
Answer: Its value is -0.967.

Question: For RRIRIRPPRLPRPRPRPNPQPRP, which “shrunken log2 fold change” value is on record?
Answer: The value was -0.287.

Question: How did the “shrunken log2 fold change” value turn out when RRIRIRPPRLPRPRPRPNQAPRP was run?
Answer: The value was -0.0486.

Question: For RRIRIRPPRLPRPRPRPNQGPRP, which “shrunken log2 fold change” value is on record?
Answer: The value was 0.0325.

Question: How did the “shrunken log2 fold change” value turn out when RRIRIRPPRLPRPRPRPNQVPRP was run?
Answer: Its value is -0.429.

Question: For RRIRIRPPRLPRPRPRPNRLPRP, which “shrunken log2 fold change” value is on record?
Answer: Its value is -0.286.

Question: How did the “shrunken log2 fold change” value turn out when RRIRIRPPRLPRPRPRPNRRPRP was run?
Answer: The value was 0.041.

Question: For RRIRIRPPRLPRPRPRPNRVPRP, which “shrunken log2 fold change” value is on record?
Answer: The value was -0.0802.

Question: RRIRIRPPRLPRPRPRPNSKPRP was tested. Which “shrunken log2 fold change” value did it give?
Answer: Its value is -0.899.

Question: With RRIRIRPPRLPRPRPRPNSLPRP as the sequence, how does the “shrunken log2 fold change” value read?
Answer: Its value is -0.457.

Question: RRIRIRPPRLPRPRPRPNSNPRP was tested. Which “shrunken log2 fold change” value did it give?
Answer: The value was -0.983.

Question: For RRIRIRPPRLPRPRPRPNSVPRP, which “shrunken log2 fold change” value is on record?
Answer: Its value is -0.342.

Question: With RRIRIRPPRLPRPRPRPNSWPRP as the sequence, how does the “shrunken log2 fold change” value read?
Answer: The value was -0.691.

Question: For RRIRIRPPRLPRPRPRPNTCPRP, which “shrunken log2 fold change” value is on record?
Answer: The value was -0.85.

Question: Which “shrunken log2 fold change” value does the source give for RRIRIRPPRLPRPRPRPNVDPRP here?
Answer: The value was -0.272.

Question: With RRIRIRPPRLPRPRPRPNVQPRP as the sequence, how does the “shrunken log2 fold change” value read?
Answer: Its value is -0.284.

Question: For RRIRIRPPRLPRPRPRPNWGPRP, which “shrunken log2 fold change” value is on record?
Answer: Its value is -0.205.

Question: How did the “shrunken log2 fold change” value turn out when RRIRIRPPRLPRPRPRPNWNPRP was run?
Answer: The value was -0.388.

Question: For RRIRIRPPRLPRPRPRPNWWPRP, which “shrunken log2 fold change” value is on record?
Answer: Its value is 0.159.

Question: RRIRIRPPRLPRPRPRPNYIPRP was tested. Which “shrunken log2 fold change” value did it give?
Answer: Its value is -1.29.

Question: RRIRIRPPRLPRPRPRPPAEPRP was tested. Which “shrunken log2 fold change” value did it give?
Answer: The value was 0.583.

Question: How did the “shrunken log2 fold change” value turn out when RRIRIRPPRLPRPRPRPPARPRP was run?
Answer: The value was 0.393.

Question: RRIRIRPPRLPRPRPRPPCTPRP was tested. Which “shrunken log2 fold change” value did it give?
Answer: The value was -0.332.

Question: With RRIRIRPPRLPRPRPRPPCVPRP as the sequence, how does the “shrunken log2 fold change” value read?
Answer: Its value is -0.173.

Question: Which “shrunken log2 fold change” value does the source give for RRIRIRPPRLPRPRPRPPDRPRP here?
Answer: The value was 0.109.

Question: Which “shrunken log2 fold change” value does the source give for RRIRIRPPRLPRPRPRPPFLPRP here?
Answer: The value was -0.0978.

Question: With RRIRIRPPRLPRPRPRPPISPRP as the sequence, how does the “shrunken log2 fold change” value read?
Answer: The value was -0.391.

Question: Which “shrunken log2 fold change” value does the source give for RRIRIRPPRLPRPRPRPPKIPRP here?
Answer: The value was -0.106.

Question: With RRIRIRPPRLPRPRPRPPKLPRP as the sequence, how does the “shrunken log2 fold change” value read?
Answer: The value was 0.0517.

Question: Which “shrunken log2 fold change” value does the source give for RRIRIRPPRLPRPRPRPPLCPRP here?
Answer: The value was 0.142.

Question: How did the “shrunken log2 fold change” value turn out when RRIRIRPPRLPRPRPRPPLSPRP was run?
Answer: Its value is -0.128.

Question: Which “shrunken log2 fold change” value does the source give for RRIRIRPPRLPRPRPRPPNEPRP here?
Answer: Its value is -0.365.

Question: RRIRIRPPRLPRPRPRPPNHPRP was tested. Which “shrunken log2 fold change” value did it give?
Answer: The value was -0.475.

Question: RRIRIRPPRLPRPRPRPPPLPRP was tested. Which “shrunken log2 fold change” value did it give?
Answer: Its value is 0.302.

Question: Which “shrunken log2 fold change” value does the source give for RRIRIRPPRLPRPRPRPPQEPRP here?
Answer: The value was -0.0258.

Question: Which “shrunken log2 fold change” value does the source give for RRIRIRPPRLPRPRPRPPQQPRP here?
Answer: Its value is 0.197.

Question: Which “shrunken log2 fold change” value does the source give for RRIRIRPPRLPRPRPRPPRNPRP here?
Answer: The value was 0.217.

Question: How did the “shrunken log2 fold change” value turn out when RRIRIRPPRLPRPRPRPPVEPRP was run?
Answer: Its value is -0.0536.

Question: With RRIRIRPPRLPRPRPRPPWCPRP as the sequence, how does the “shrunken log2 fold change” value read?
Answer: Its value is 1.45.

Question: Which “shrunken log2 fold change” value does the source give for RRIRIRPPRLPRPRPRPQCMPRP here?
Answer: Its value is -0.836.

Question: How did the “shrunken log2 fold change” value turn out when RRIRIRPPRLPRPRPRPQDIPRP was run?
Answer: Its value is -0.461.

Question: RRIRIRPPRLPRPRPRPQDPPRP was tested. Which “shrunken log2 fold change” value did it give?
Answer: The value was -0.235.

Question: RRIRIRPPRLPRPRPRPQDSPRP was tested. Which “shrunken log2 fold change” value did it give?
Answer: The value was -0.269.

Question: How did the “shrunken log2 fold change” value turn out when RRIRIRPPRLPRPRPRPQDVPRP was run?
Answer: Its value is -0.0964.

Question: RRIRIRPPRLPRPRPRPQESPRP was tested. Which “shrunken log2 fold change” value did it give?
Answer: Its value is -0.617.

Question: RRIRIRPPRLPRPRPRPQFSPRP was tested. Which “shrunken log2 fold change” value did it give?
Answer: The value was -0.371.

Question: With RRIRIRPPRLPRPRPRPQGLPRP as the sequence, how does the “shrunken log2 fold change” value read?
Answer: Its value is 0.0413.

Question: With RRIRIRPPRLPRPRPRPQGMPRP as the sequence, how does the “shrunken log2 fold change” value read?
Answer: Its value is -0.501.

Question: Which “shrunken log2 fold change” value does the source give for RRIRIRPPRLPRPRPRPQHCPRP here?
Answer: The value was -0.248.

Question: For RRIRIRPPRLPRPRPRPQICPRP, which “shrunken log2 fold change” value is on record?
Answer: Its value is -0.0396.

Question: Which “shrunken log2 fold change” value does the source give for RRIRIRPPRLPRPRPRPQIRPRP here?
Answer: The value was -0.64.

Question: How did the “shrunken log2 fold change” value turn out when RRIRIRPPRLPRPRPRPQKAPRP was run?
Answer: Its value is 0.0173.

Question: How did the “shrunken log2 fold change” value turn out when RRIRIRPPRLPRPRPRPQKEPRP was run?
Answer: The value was -0.0177.

Question: For RRIRIRPPRLPRPRPRPQLNPRP, which “shrunken log2 fold change” value is on record?
Answer: The value was -0.499.

Question: Which “shrunken log2 fold change” value does the source give for RRIRIRPPRLPRPRPRPQMAPRP here?
Answer: The value was -0.064.

Question: With RRIRIRPPRLPRPRPRPQNLPRP as the sequence, how does the “shrunken log2 fold change” value read?
Answer: The value was -0.261.

Question: With RRIRIRPPRLPRPRPRPQQDPRP as the sequence, how does the “shrunken log2 fold change” value read?
Answer: The value was -0.442.

Question: RRIRIRPPRLPRPRPRPQQSPRP was tested. Which “shrunken log2 fold change” value did it give?
Answer: Its value is -0.113.

Question: How did the “shrunken log2 fold change” value turn out when RRIRIRPPRLPRPRPRPQVAPRP was run?
Answer: The value was -0.333.

Question: With RRIRIRPPRLPRPRPRPQVLPRP as the sequence, how does the “shrunken log2 fold change” value read?
Answer: Its value is -0.338.

Question: For RRIRIRPPRLPRPRPRPQYPPRP, which “shrunken log2 fold change” value is on record?
Answer: The value was -0.32.

Question: For RRIRIRPPRLPRPRPRPRACPRP, which “shrunken log2 fold change” value is on record?
Answer: Its value is -0.148.

Question: Which “shrunken log2 fold change” value does the source give for RRIRIRPPRLPRPRPRPRDNPRP here?
Answer: The value was -0.348.

Question: How did the “shrunken log2 fold change” value turn out when RRIRIRPPRLPRPRPRPREMPRP was run?
Answer: The value was 0.00525.

Question: Which “shrunken log2 fold change” value does the source give for RRIRIRPPRLPRPRPRPRGWPRP here?
Answer: Its value is 0.385.

Question: Which “shrunken log2 fold change” value does the source give for RRIRIRPPRLPRPRPRPRGYPRP here?
Answer: Its value is -0.794.

Question: Which “shrunken log2 fold change” value does the source give for RRIRIRPPRLPRPRPRPRHCPRP here?
Answer: The value was 0.0849.

Question: How did the “shrunken log2 fold change” value turn out when RRIRIRPPRLPRPRPRPRHFPRP was run?
Answer: Its value is -0.00457.

Question: For RRIRIRPPRLPRPRPRPRHWPRP, which “shrunken log2 fold change” value is on record?
Answer: Its value is -0.12.

Question: How did the “shrunken log2 fold change” value turn out when RRIRIRPPRLPRPRPRPRIHPRP was run?
Answer: The value was -0.287.

Question: For RRIRIRPPRLPRPRPRPRIKPRP, which “shrunken log2 fold change” value is on record?
Answer: Its value is -0.466.
